Test results from paper PMC3240717.

Target: CD44-AFAP-110 complex (human (endogenous in MDA-MB-231)) (UniProt P16070)
Assay: radioligand binding

Chain of UniProt P16070 (P16070 21-742, chain 1 of 2): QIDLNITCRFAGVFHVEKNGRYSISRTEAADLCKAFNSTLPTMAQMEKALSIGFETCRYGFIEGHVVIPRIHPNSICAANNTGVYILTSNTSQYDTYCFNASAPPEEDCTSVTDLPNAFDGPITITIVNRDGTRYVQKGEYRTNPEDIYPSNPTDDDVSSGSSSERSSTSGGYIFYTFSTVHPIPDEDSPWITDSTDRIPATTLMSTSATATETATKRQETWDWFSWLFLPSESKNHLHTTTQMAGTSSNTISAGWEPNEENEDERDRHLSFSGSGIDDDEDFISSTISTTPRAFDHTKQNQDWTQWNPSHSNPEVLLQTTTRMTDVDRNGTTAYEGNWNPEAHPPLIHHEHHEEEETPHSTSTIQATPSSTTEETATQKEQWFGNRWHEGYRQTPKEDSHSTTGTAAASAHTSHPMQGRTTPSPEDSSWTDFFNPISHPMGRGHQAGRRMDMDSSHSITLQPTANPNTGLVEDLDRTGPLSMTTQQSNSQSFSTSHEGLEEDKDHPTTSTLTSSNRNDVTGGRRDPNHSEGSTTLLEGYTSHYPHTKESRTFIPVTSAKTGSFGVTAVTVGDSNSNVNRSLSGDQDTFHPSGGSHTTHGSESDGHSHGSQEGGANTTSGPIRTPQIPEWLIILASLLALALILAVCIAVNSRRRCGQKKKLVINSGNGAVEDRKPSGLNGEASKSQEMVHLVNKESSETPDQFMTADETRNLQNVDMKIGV
Chain of UniProt P16070 (Q8N556 whole entry, chain 2 of 2, further chain): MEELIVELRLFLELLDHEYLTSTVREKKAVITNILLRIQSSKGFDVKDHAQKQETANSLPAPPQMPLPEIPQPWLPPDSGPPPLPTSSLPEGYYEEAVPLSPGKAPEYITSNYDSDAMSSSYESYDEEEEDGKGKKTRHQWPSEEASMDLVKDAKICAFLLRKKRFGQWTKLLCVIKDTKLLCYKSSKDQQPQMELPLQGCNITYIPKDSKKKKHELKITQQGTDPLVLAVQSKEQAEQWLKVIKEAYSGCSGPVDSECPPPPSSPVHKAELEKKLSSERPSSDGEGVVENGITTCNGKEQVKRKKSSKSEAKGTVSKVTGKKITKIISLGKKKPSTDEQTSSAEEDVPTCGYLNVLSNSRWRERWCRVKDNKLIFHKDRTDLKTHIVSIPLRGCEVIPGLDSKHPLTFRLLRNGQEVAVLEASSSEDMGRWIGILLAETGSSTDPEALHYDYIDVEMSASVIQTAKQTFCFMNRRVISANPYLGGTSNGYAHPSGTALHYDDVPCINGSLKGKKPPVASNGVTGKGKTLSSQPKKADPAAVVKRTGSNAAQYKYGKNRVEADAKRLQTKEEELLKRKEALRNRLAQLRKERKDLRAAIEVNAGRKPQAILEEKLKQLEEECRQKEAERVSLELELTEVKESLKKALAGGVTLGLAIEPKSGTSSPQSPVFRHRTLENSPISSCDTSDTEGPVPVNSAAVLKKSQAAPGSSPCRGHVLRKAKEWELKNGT

125I-F-actin bound, cpm (cells: HA fragment (2-3 disaccharide) treatment): 11700 cpm | 125I-F-actin bound, cpm (cells: HMW-HA treatment): 13800 cpm | 125I-F-actin bound, cpm (cells: LMW-HA treatment): 38400 cpm | 125I-F-actin bound, cpm (cells: anti-CD44 IgG + LMW-HA treatment): 12500 cpm | 125I-F-actin bound, cpm (cells: no treatment, control): 12700 cpm | 125I-F-actin bound, cpm (cells: normal IgG + LMW-HA treatment): 38000 cpm | 125I-F-actin bound, cpm (cells: normal IgG + no HA treatment): 12500 cpm | 125I-F-actin bound, cpm (cells: scrambled siRNA, HMW-HA treatment): 11500 cpm | 125I-F-actin bound, cpm (cells: scrambled siRNA, LMW-HA treatment): 31800 cpm | 125I-F-actin bound, cpm (cells: scrambled siRNA, no treatment, control): 11000 cpm
Substance: filamentous actin (F-actin) (natural protein)
